For one data set, the system named is Fluc-labeled 4T1 cells. Nature of the data set: In vivo tumor growth from a small number of subcutaneously injected Fluc-labeled 4T1 cells. To be noted: about 1000 subcutaneously injected Fluc-labeled 4T1 cells. Details: species or system mice. The method, then:
Growth of Fluc-labeled tumor cells in vivo was followed through non-invasive bioluminescence imaging using the IVIS200 instrument (Caliper Life Sciences, Hopkinton, Mass.). Mice to be imaged were injected with 150 mg/kg of D-luciferin (obtained from Caliper Life Sciences) intraperitoneally in 200 μl of PBS and then anesthetized with continuous flow of isofluorane. Imaging of the mice was carried out 10 minutes later. The time between injection and imaging was kept constant among different batches of mice.
Different approaches were used to establish tumor growth than traditionally adopted by other studies. In most of the studies, only a very small number of Fluc-labeled tumor cells (500-1000 cells each) were injected either alone or together with other unlabeled cells (either tumor cells or fibroblast cells) that were either irradiated or un-irradiated. Tumor growth in these cells was monitored through the quantification of bioluminescence signals emitted from labeled tumor cells by using the IVIS200 instrument following manufacturer's instructions.
As PGE2 had been implicated as a regulator of tumor growth, its effect on in vivo tumor growth was evaluated from a small number of Fluc-labeled 4T1 cells.

The subject of data set [1] is 4T1Fluc cells. The experiment in a line: Growth of Fluc-labeled tumor cells seeded onto dying feeder cells killed by cytotoxic treatment. Type of data set: cell-based, mouse. To be noted: dying feeder cells killed by a treatment other than radiation.
In data set [2] the test system is 4T1Fluc cells. Nature of the data set: Growth of 4T1Fluc tumor cells plated with lethally irradiated NIH3T3 cells, bioluminescence imaging. The class given is cell-based, mouse. The note with it: about 1000 4T1Fluc cells plated with lethally irradiated NIH3T3 cells plus inhibitor (FIG. 4). Here is the method: FIG. 4 is a graph showing the effect of a caspase inhibitor z-VAD-fmk on 4T1Fluc tumor cell growth when plated with lethally irradiated NIH3T3 cells. About 1000 4T1Fluc cells were plated either alone, with non-irradiated NIH3T3 cells, or with lethally irradiated NIH3T3 cells plus a pan-caspase inhibitor z-VAD-fmk.
For imaging luciferase, the IVIS200 instrument from Caliper Life Sciences (Hopkinton, Mass.) was used. For tissue cultured cells, luciferase signal was imaged by adding PBS or colorless OptiMEM medium (Invitrogen, Carlsbad, Calif.) with D-luciferin (Caliper Life Sciences, Hopkinton, Mass.) at a concentration of 0.15 mg/ml. The cells were imaged at a set time point (e.g., 10 minutes) after the administration of D-luciferin. This allowed the signals from different samples to be compared. After images were taken, the manufacturer supplied software was used to process the images for quantitative data.
In order to rule out the possibility that caspase 3 mediates its growth-promoting function through a non-proteolytic mechanism, experiments were conducted using a pan-caspase inhibitor z-VAD-fmk to treat irradiated cells. […] A further, more definitive confirmation came from experiments where a dominant-negative version of caspase 3 was stably transduced into 4T1 cells. The dominant-negative caspase 3 (DN-casp3) differs with wild type caspase 3 in only one amino acid (C163A). […]

For a further data set, the system named is IMR90 cells. The experiment in a line: iPSC induction from IMR90 fibroblasts transduced with transcription factor cocktails. The class given is cell-based, human. To be noted: for increase in frequency of OSNL-induced iPSC formation: IMR90 cells; for suppression / reduction in the frequency of iPSC induction: IMR90 cells stably transduced with the agent. The text has this:
The caspase reporters were transduced into human IMR90 fibroblasts via recombinant lentivirus vectors. After puromycin selection to ensure stable integration of the reporters, the iPSC reprogramming process was initiated by infecting caspase reporter-transduced IMR90 cells with recombinant lentivirus vectors carrying 4 transcription factors (Oct-4, Sox2, Nanog, and Lin28, or OSNL in abbreviation) that are known to induce iPSC formation. To avoid the use of myc, which is known to induce caspase activation and might confound the results, the OSNL protocol was chosen because it was shown not to be essential for iPSC induction.
In order to determine whether the observed caspases 3 and 8 activation had any functional relevance in iPSC induction, down-regulation of caspase activities in OSNL-transduced cells was attempted. In the initial experiment, CrmA was we stably transduced through lentiviral vectors, a cow pox virus protein known to suppress caspases 1 and 8 activities, into IMR90 cells. […] This was a very surprising result because logically one would expect that inhibiting caspase activation would lead to increased iPSC generation because of reduced cell death.
Because CrmA inhibits both caspases 1 and 8, more specific approaches were used to determine which caspase was involved. First, a siRNA-based knockdown approach was used. In this approach, lentiviral vectors encoding either caspase 1- or caspase 8-targeted shRNA was used to infect IMR90 cells. After selecting for cells with stable shRNA knockdown (as verified by western blot analysis), they were infected with OSNL lentivector cocktail.
To provide further proof that the cleavage activities of caspases 3 and 8 are necessary for iPSC formation, lentiviral vectors encoding dominant-negative forms of caspases 3 and 8 were constructed. The dominant negative form of human caspase 8 gene (casp8-DN) encodes a virtually identical protein as the wild type except a single amino acid change (i.e. C360A), which disables its catalytic proteolytic function. This dominant negative form was cloned into a recombinant lentiviral vector. Similarly, the dominant negative form of caspase 3 (Casp3-DN), which contains a single mutation (C163A) that disables its proteolytic function, was also cloned into a lentiviral vector.
When IMR90 cells stably transduced with a lentiviral vector encoding casp8-DN were infected with the OSNL lentiviral cocktail, no iPSC induction process was observed.

Peptide text beside a SMILES is read from it. * marks the point of attachment. Cbz = O=C(OCc1ccccc1)*; CH2F = FC*

As to `CCCCC[C@H](O)/C=C/[C@H]1[C@H](O)CC(=O)[C@@H]1C/C=C\CCCC(=O)O` [PGE2, prostaglandin E2], the “effect on in vivo tumor growth” value in the data set on Fluc-labeled 4T1 cells was “significantly stimulate tumor growth”.
`COc1cc([C@@H]2c3cc4c(cc3[C@@H](O[C@@H]3O[C@@H]5CO[C@@H](C)O[C@H]5[C@H](O)[C@H]3O)[C@H]3COC(=O)[C@H]23)OCO4)cc(OC)c1O` [etoposide]: in the data set on 4T1Fluc cells [1], the “growth-enhancing function conferred on dying cells by the cytotoxic treatment” value is on record as “engender significant growth-enhancing functions to dying cells”.
In the case of `COC(=O)C[C@H](NC(=O)[C@H](C)NC(=O)[C@@H](NC(=O)OCc1ccccc1)C(C)C)C(=O)CF` [z-VAD-fmk] (Cbz-Val-Ala-Asp(OMe)-CH2F), the “effect on growth-promoting properties of irradiated cells towards 4T1Fluc tumor cell growth” value in the data set with 4T1Fluc cells [2] is “eliminated the growth-promoting properties of irradiated cells”.
For “E7: human papilloma virus type 16 E7 protein, known to inhibit Rb function, co-transduced with OSNL”, the “increase in frequency of OSNL-induced iPSC formation” value in the data set with IMR90 cells is ~5 fold.

B1: Rb: human Rb gene over-expressed from a lentiviral expression vector (protein, UniProt P06400 2-928, looked up)
Retinoblastoma-associated …: PPKTPRKTAATAAAAAAEPPAPPPPPPPEEDPEQDSGPEDLPLVRLEFEETEEPDFTALCQKLKIPDHVRERAWLTWEKVSSVDGVLGGYIQKKKELWGICIFIAAVDLDEMSFTFTELQKNIEISVHKFFNLLKEIDTSTKVDNAMSRLLKKYDVLFALFSKLERTCELIYLTQPSSSISTEINSALVLKVSWITFLLAKGEVLQMEDDLVISFQLMLCVLDYFIKLSPPMLLKEPYKTAVIPINGSPRTPRRGQNRSARIAKQLENDTRIIEVLCKEHECNIDEVKNVYFKNFIPFMNSLGLVTSNGLPEVENLSKRYEEIYLKNKDLDARLFLDHDKTLQTDSIDSFETQRTPRKSNLDEEVNVIPPHTPVRTVMNTIQQLMMILNSASDQPSENLISYFNNCTVNPKESILKRVKDIGYIFKEKFAKAVGQGCVEIGSQRYKLGVRLYYRVMESMLKSEEERLSIQNFSKLLNDNIFHMSLLACALEVVMATYSRSTSQNLDSGTDLSFPWILNVLNLKAFDFYKVIESFIKAEGNLTREMIKHLERCEHRIMESLAWLSDSPLFDLIKQSKDREGPTDHLESACPLNLPLQNNHTAADMYLSPVRSPKKKGSTTRVNSTANAETQATSAFQTQKPLKSTSLSLFYKKVYRLAYLRLNTLCERLLSEHPELEHIIWTLFQHTLQNEYELMRDRHLDQIMMCSMYGICKVKNIDLKFKIIVTAYKDLPHAVQETFKRVLIKEEEYDSIIVFYNSVFMQRLKTNILQYASTRPPTLSPIPHIPRSPYKFPSSPLRIPGGNIYISPLKSPYKISEGLPTPTKMTPRSRILVSIGESFGTSEKFQKINQMVCNSDRVLKRSAEGSNPPKPLKKLRFDIEGSDEADGSKHLPGESKFQQKLAEMTSTRTRMQKQKMNDSMDTSNKEEK
modifications: lentiviral expression
notes: human Rb gene over-expressed from a lentiviral expression vector
In the case of B1, in the data set on IMR90 cells (OSNL lentiviral cocktail), the “suppression / reduction in the frequency of iPSC induction” value (shortened to “suppression / reduction in the frequency”) was “about 50%”.

B2: casp8-DN: dominant negative form of human caspase 8 (C360A), lentiviral vector encoded (protein, UniProt Q14790 1-479, looked up, variant C360A)
chain: MDFSRNLYDIGEQLDSEDLASLKFLSLDYIPQRKQEPIKDALMLFQRLQEKRMLEESNLSFLKELLFRINRLDLLITYLNTRKEEMERELQTPGRAQISAYRVMLYQISEEVSRSELRSFKFLLQEEISKCKLDDDMNLLDIFIEMEKRVILGEGKLDILKRVCAQINKSLLKIINDYEEFSKERSSSLEGSPDEFSNGEELCGVMTISDSPREQDSESQTLDKVYQMKSKPRGYCLIINNHNFAKAREKVPKLHSIRDRNGTHLDAGALTTTFEELHFEIKPHDDCTVEQIYEILKIYQLMDHSNMDCFICCILSHGDKGIIYGTDGQEAPIYELTSQFTGLKCPSLAGKPKVFFIQAAQGDNYQKGIPVETDSEEQPYLEMDLSSPQTRYIPDEADFLLGMATVNNCVSYRNPAEGTWYIQSLCQSLRERCPRGDDILTILTEVNYEVSNKDDKKNMGKQMPQPTFTLRKKLVFPSD
modifications: full-length lentiviral vector encoded
notes: dominant negative form of human caspase 8 (C360A), lentiviral vector encoded
Consider B2, for which the iPSC clones observed entry in the data set with IMR90 cells (OSNL lentiviral cocktail, after 25 days of culture, wild type IMR90 around 550 clones/5×10^5 cells) is “No iPSC clones were observed”. Also, in the data set with IMR90 cells (transduced together with OSKM), the “suppression of iPSC induction” value is reported as “over 95%”.

B3: dominant negative caspase 3 (C163A): dominant negative form of caspase 3 with single mutation C163A, lentiviral vector encoded (protein, UniProt P42574 1-277, looked up, variant C163A)
chain: MENTENSVDSKSIKNLEPKIIHGSESMDSGISLDNSYKMDYPEMGLCIIINNKNFHKSTGMTSRSGTDVDAANLRETFRNLKYEVRNKNDLTREEIVELMRDVSKEDHSKRSSFVCVLLSHGEEGIIFGTNGPVDLKKITNFFRGDRCRSLTGKPKLFIIQAARGTELDCGIETDSGVDDDMACHKIPVEADFLYAYSTAPGYYSWRNSKDGSWFIQSLCAMLKQYADKLEFMHILTRVNRKVATEFESFSFDATFHAKKQIPCIVSMLTKELYFYH
modifications: full-length lentiviral vector encoded
notes: dominant negative form of caspase 3 with single mutation C163A, lentiviral vector encoded
Turning to B3, the “suppression / reduction in the frequency” value in the data set on IMR90 cells (OSNL lentiviral cocktail) is reported as “about 80%”.

B4: shRNA targeted to Rb: lentiviral vector-encoded shRNA against human Rb, Open Biosystems (nucleic acid)
DNA: TGCTGTTGACAGTGAGCGCGGATATAGGATACATCTTTAATAGTGAAGCCACAGATGTATTAAAGATGTATCCTATATCCTTGCCTACTGCCTCGGA
modifications: the letters are possibly those of the target site
notes: lentiviral vector-encoded shRNA against human Rb, Open Biosystems
B4: the “increase in frequency of OSNL-induced iPSC formation” value with IMR90 cells was “almost doubled”.

B5: shRNA targeted to caspase 1: lentiviral vector-encoded shRNA against human caspase 1, Open Biosystems (nucleic acid)
DNA: TGCTGTTGACAGTGAGCGCGCAATCTTTAACATGTTGAATTAGTGAAGCCACAGATGTAATTCAACATGTTAAAGATTGCATGCCTACTGCCTCGGA
modifications: the letters are possibly those of the target site
notes: lentiviral vector-encoded shRNA against human caspase 1, Open Biosystems
In the case of B5, in the data set on IMR90 cells (OSNL lentiviral cocktail), the “suppression / reduction in the frequency” value was “no significant effect”.

(Values after patent publication US20110165143A1, “MODULATION OF CASPASES AND THERAPEUTICAL APPLICATIONS” (The Regents of the University of Colorado, a body corporate, priority 2010, published 2011).)
